What all share (assay): cell-based or functional assay
The target in one assay is T1, TACR3 (UniProt P29371 1-465).
T1 sequence (looked up): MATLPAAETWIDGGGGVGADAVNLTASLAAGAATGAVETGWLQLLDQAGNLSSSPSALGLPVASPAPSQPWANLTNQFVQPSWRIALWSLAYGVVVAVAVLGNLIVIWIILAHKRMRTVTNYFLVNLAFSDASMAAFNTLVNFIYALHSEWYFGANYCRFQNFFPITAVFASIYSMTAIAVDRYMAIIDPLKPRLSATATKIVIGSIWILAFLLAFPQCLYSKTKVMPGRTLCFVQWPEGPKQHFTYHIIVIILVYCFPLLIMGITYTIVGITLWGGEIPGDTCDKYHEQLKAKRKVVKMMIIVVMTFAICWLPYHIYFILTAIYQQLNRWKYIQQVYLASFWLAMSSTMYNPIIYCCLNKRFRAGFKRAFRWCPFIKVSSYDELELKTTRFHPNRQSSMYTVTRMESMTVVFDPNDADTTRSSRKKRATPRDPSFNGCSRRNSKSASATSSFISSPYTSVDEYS

For a further assay, the target named is T2, FPR1 (UniProt P21462 1-350).
T2 sequence (looked up): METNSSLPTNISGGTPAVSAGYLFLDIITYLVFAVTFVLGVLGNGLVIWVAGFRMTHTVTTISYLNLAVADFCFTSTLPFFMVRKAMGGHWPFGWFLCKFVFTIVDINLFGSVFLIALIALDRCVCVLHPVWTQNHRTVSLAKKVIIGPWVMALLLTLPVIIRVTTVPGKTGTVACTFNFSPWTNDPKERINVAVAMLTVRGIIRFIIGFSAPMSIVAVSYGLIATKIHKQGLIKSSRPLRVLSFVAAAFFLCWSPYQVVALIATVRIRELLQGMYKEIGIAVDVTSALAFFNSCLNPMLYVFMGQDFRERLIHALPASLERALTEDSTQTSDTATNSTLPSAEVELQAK

The target in the next assay is T3, GPR120 (UniProt Q5NUL3 1-361, limits assumed).
T3 sequence (looked up): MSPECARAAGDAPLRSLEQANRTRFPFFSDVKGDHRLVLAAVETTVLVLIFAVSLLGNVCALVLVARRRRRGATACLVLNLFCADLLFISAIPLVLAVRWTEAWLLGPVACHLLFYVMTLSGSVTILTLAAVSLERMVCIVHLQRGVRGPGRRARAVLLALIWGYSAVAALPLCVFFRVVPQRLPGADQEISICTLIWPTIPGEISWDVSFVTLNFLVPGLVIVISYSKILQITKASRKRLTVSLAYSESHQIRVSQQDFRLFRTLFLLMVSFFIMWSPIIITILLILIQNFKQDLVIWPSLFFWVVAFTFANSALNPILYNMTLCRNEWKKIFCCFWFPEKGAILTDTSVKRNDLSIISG

Another assay addresses T4, CXCR3 (UniProt P49682 1-368).
T4 sequence (looked up): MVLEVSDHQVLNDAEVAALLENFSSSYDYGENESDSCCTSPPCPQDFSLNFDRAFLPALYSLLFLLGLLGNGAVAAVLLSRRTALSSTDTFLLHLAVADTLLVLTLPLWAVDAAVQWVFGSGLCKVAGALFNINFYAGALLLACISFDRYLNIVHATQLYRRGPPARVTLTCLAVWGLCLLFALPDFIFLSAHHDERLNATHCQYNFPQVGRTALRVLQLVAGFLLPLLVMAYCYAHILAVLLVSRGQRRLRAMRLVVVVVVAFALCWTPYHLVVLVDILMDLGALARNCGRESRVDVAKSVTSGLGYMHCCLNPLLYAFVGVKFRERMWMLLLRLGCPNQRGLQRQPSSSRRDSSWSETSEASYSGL

Another assay addresses T5, EDNRA (UniProt P25101 21-427).
T5 sequence (looked up): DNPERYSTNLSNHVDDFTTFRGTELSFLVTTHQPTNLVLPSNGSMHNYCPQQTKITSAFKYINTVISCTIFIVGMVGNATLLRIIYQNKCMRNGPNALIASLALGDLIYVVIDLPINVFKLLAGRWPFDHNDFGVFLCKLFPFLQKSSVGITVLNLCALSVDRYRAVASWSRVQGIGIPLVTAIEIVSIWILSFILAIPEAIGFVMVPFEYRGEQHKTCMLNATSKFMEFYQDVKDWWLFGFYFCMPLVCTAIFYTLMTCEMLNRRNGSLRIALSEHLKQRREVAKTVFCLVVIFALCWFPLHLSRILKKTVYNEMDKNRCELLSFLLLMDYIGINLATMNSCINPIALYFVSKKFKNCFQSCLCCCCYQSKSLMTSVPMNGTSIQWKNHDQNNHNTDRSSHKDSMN

The target in a further assay is CHRM3 (UniProt P20309 1-590).
Chain of CHRM3 (P20309 whole entry): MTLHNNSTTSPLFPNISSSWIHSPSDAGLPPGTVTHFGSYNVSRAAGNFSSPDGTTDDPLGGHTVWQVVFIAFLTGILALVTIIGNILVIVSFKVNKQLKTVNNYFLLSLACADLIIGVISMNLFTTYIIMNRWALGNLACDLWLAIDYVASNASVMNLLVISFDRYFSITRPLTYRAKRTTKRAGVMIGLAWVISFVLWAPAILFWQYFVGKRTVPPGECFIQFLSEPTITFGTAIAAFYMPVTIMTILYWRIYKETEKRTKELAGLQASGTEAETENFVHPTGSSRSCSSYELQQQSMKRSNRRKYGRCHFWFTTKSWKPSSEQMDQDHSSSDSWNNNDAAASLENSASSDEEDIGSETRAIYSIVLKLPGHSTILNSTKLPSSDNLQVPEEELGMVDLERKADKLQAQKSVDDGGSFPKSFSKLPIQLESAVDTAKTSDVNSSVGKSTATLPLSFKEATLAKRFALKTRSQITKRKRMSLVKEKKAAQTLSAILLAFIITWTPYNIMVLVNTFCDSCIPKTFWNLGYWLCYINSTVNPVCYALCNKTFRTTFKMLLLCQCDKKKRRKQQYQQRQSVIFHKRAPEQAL
The target in a further assay is TSHR(L) (UniProt P16473 21-764, limits assumed).
Another assay concerns the target T6, HCRTR1 (UniProt O43613 1-425).
T6 sequence (looked up): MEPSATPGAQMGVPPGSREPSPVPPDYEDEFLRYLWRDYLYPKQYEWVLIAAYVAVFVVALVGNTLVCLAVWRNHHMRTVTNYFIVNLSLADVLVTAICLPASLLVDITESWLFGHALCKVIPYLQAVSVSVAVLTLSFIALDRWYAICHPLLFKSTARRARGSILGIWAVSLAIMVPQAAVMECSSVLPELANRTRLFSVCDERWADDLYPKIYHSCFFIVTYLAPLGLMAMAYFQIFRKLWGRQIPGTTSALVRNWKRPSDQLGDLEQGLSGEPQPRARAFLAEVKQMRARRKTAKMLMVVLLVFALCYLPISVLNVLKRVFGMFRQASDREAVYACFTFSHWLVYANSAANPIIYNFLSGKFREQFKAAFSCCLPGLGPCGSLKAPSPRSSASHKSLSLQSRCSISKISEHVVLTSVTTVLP

Where no end group is shown, it is not given here.

As to QATVGDVNTDRPGLLDLK (also: synthesised on Rink amide resin, C-terminal amide not given here outright) [octadecaneuropeptide (ODN)], the “% Activity, arrestin, antagonist mode, 2.5 uM” value with TACR3 was -5.8%; in the assay with FPR1, -11.1%; with GPR120, 22.7%; in the assay with CXCR3, -7.5%; with EDNRA, 2.5%; with CHRM3, 12.6%. Moreover, the “% Activity, arrestin, antagonist mode, 2.5 uM” value is -19.1% with TSHR(L) and -1.7% in the assay with HCRTR1.

(Values after patent publication US20260184748A1 (University of Pennsylvania, published 2026).)
